± gives the uncertainty stated by the source.

In the supplement of paper PMC12042874 one finds amyloid nucleation score data, which are given here for 102 substances.

This data set is described as follows: amyloid nucleation score (Sup35N fusion, yeast selection) (log enrichment); library NNK1; higher = more nucleation; inactive = no reads after selection. A digest of the protocol: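 The nucleation score equals the log enrichment of output over input reads from DiMSum, centred on the mode score of non-aggregating sequences. It was computed only for sequences with 100 or more input reads. The reads came from Illumina sequencing of plasmid inserts from psi-negative yeast expressing Sup35N fused to peptides of 20 random codons, induced with 100 μM copper sulfate for 24 hours and grown 7 days at 30°C without adenine and uracil.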
On to NAQWKHETHIFCSAMFVTEC, for which the amyloid nucleation score turned out to be 0.878 ± 0.45.
Consider NCFRTSCKSGEWLQLFIRRG, for which the amyloid nucleation score worked out at 0.275 ± 0.39.
Next, NCMKLLEQRGGCLQANGF: 2.09 ± 0.15; NCNLSQWLIRQPKRAVSTHT: 0.243 ± 0.33.
The figure for NCSDQALDLQGSMSVQKIFR is -0.533 ± 0.88.
With NDDTLRSTKVIEHLFP, the amyloid nucleation score turned out to be 0.698 ± 1.2.
The figure for NDLFMESLL is 0.025 ± 0.43; for NDRPMMEVGMDPTPAGVLRE it is 0.276 ± 0.49; for NDSICIVVLS it is -0.009 ± 0.84.
Next, NDTFSYCSTSGDRFGT: 1.4 ± 0.24; NDTSNPVTLCHFV: 0.408 ± 0.48; NDWVY: 1.12 ± 0.53.
In turn, NDYTELEIFCNLLRLMFWVV gave an amyloid nucleation score of -0.162 ± 0.48.
The figure for NEHQVNEG is 0.478 ± 0.48.
The entry for NELWCKADVMS is “inactive”; for NFCFTVFLEVNAVKMRIYF it is -0.798 ± 1.1; for NFFVSRLISQPHLGTYYAS it is “inactive”.
In turn, NFGNVNFVYVTWMVAESSAC displayed an amyloid nucleation score of 5.915 ± 0.057.
In the case of NFICLHQNNMLISPKGTATR, the amyloid nucleation score worked out at 0.672 ± 0.31.
Substance NFLFAYVLALRLFMYSVNMW displayed an amyloid nucleation score of 4.5 ± 0.054.
Next, NFTICLGRSTEHPGIRFDAG: -0.207 ± 1.9; NFTTVAVLRFNDNGR: 4.43 ± 0.066; NGCLQRKNWLVSGSFLHFVD: -0.295 ± 0.72.
In the case of NGFDTKYSLEGLGYSWPMLV, the amyloid nucleation score came to 0.407 ± 0.41.
Next, NGHLRSINTSSARCMPAVFT: -0.112 ± 0.53; NGINSVRKDLLFYNLQR: 0.107 ± 1.1.
The figure for NGITLLGAVAFTVFLLYPRT is -0.215 ± 0.41; for NGKGFNDVVKLRSGRRWGVR it is -0.111 ± 1.4; for NGKVYVELKEWDLRVVGSLR it is 4.44 ± 0.095.
The figure for NGLWVGHLVLDGIYSA is -0.564 ± 0.33; for NGNDDLSQTTEVKGYVGATL it is -0.3 ± 0.37.
Substance NGRENWSDETGSMFECALYS showed an amyloid nucleation score of 1.28 ± 0.44.
The substance NGVPWG displayed an amyloid nucleation score of -0.21 ± 0.95.
Consider NHCCRVFMCFRIRGMYNAET, for which the amyloid nucleation score worked out at 4.05 ± 0.085.
Next, NHFVALLSGIGVCSFWKKFG: -0.257 ± 1.5; NHGCQIFRG: 0.667 ± 0.64; NHSLMGVSTSFWI: -0.334 ± 0.45.
Turning to NHVYCVWMRMFMIYFNL, the amyloid nucleation score was -0.17 ± 0.54.
Turning to NIEVYDFYNINSMYNV, the amyloid nucleation score amounted to 4.54 ± 0.079.
Next, NIHGDGWSYVLNAIGSELD: 0.154 ± 0.43.
NIIIVNSSVG yielded an amyloid nucleation score of 1.49 ± 0.37.
For NIRKPNLNTMTDRLDWSVQS, the amyloid nucleation score was -0.102 ± 0.47.
Substance NISRAVHTRMGGYMSPTWLK gave an amyloid nucleation score of 0.833 ± 0.5.
Substance NKKESGWY returned an amyloid nucleation score of -0.387 ± 0.97.
For the substance NKLTSCTVSHCL, the amyloid nucleation score is -0.125 ± 0.44.
In turn, NKMGFFNTISGKRS came in with an amyloid nucleation score of -0.556 ± 0.59.
NKQARVRETRVGLTCVGMLG registered an amyloid nucleation score of -0.321 ± 1.2.
Turning to NLALITWFESYCQTMRSAWI, the amyloid nucleation score is -0.145 ± 0.26.
Next, NLDKNGYRTCNLKISYHMSR: 1.28 ± 0.32.
Substance NLDYDVESRVTEVWGVLSGC registered an amyloid nucleation score of 1.92 ± 0.56.
The figure for NLFIPILVYHDVSRYSLRMD is 6.483 ± 0.055.
As for NLFVKFLNSRRCINFMTMFD, the amyloid nucleation score was -0.01 ± 0.77.
NLINSIGIVEAWEILPASSR displayed an amyloid nucleation score of 0.124 ± 1.2.
The figure for NLLGYVNVQVGAVYTGNNRL is 7.602 ± 0.066; for NLLHESCRVLYS it is 0.398 ± 0.5.
NLLTWRD: the amyloid nucleation score was 0.743 ± 0.64.
NLNTASQNIASLGLGALVLW registered an amyloid nucleation score of 0.073 ± 0.44.
Substance NLQSCLVYKVSVGNLPLIYL had an amyloid nucleation score of -0.45 ± 1.2.
The figure for NLSFLK is -0.313 ± 1.3.
Regarding NLSIRCLASFCPTGESWIRV, the amyloid nucleation score came to 0.971 ± 0.79.
For the substance NLVRLILRCSDRAKRFLRAL, the amyloid nucleation score was -0.218 ± 0.36.
The figure for NLVRLVRIARCSMRSSVGTL is 1.23 ± 0.16; for NLWGSFTCYLFVIGNHWFGI it is 6.96 ± 0.084; for NLYPDLGVLVGCHSDKWSNL it is -0.115 ± 1.3.
The figure for NLYYWYGTVSIWFYNRWFGV is -0.021 ± 0.66.
The figure for NMLWSGITKFGGRGLKSMVV is -0.169 ± 0.88.
NMQLAPTGPNTVPISYDLFP had an amyloid nucleation score of -1.46 ± 2.4.
In the case of NMRTNNVGVGLPSFMHNSSF, the amyloid nucleation score result was “inactive”.
Take NMRVFWSARRQALFQWRIL: the amyloid nucleation score turned out to be 0.807 ± 0.71.
The substance NMSESCNMDTLYGYDLRQWV had an amyloid nucleation score of 0.088 ± 0.33.
Take NNHKLAFTVVTPIEDHFRMR: the amyloid nucleation score is 0.674 ± 0.46.
Next, NNLVFHGSKHNIKVRRMEMG: -1.14 ± 2.7; NNPEINFYKVWAIKSYF: 2.83 ± 0.13.
In the case of NNSHFQSNGNIWSNNSSPSA, the amyloid nucleation score entry is “inactive”.
As to NNSKFMWQLSNWSWYTWHYI, the amyloid nucleation score is -0.392 ± 0.83.
Substance NNSLISTGVRMNHVVLR gave an amyloid nucleation score of -0.091 ± 0.9.
The substance NNVRVDKACGEAMEDEKRVV registered an amyloid nucleation score of 0.672 ± 0.37.
For NNVRYT, the amyloid nucleation score result is “inactive”.
Consider NNYLCAEWFVTGVSTPLTTS, for which the amyloid nucleation score was 0.735 ± 0.55.
The substance NNYVYLSLSFPVGTVC displayed an amyloid nucleation score of -0.377 ± 0.61.
In turn, NPAITGRFSYCT returned an amyloid nucleation score of 0.456 ± 1.2.
With NPSFNPWNDHHYCTSGMCML, the amyloid nucleation score turned out to be 0.562 ± 0.81.
Substance NQDFLTLALKWRCECFHTKL had an amyloid nucleation score of -0.247 ± 1.9.
Turning to NQDMVNMIHETFIVLARVVI, the amyloid nucleation score was -0.059 ± 0.38.
In turn, NQDVTPVMRVVLDSSPTLSS showed an amyloid nucleation score of 2 ± 0.6.
For the substance NQIFVQCSVGKAWDRSKSVD, the amyloid nucleation score turned out to be 4.12 ± 0.081.
Regarding NQTNFDVSLY, the amyloid nucleation score amounted to 4.64 ± 0.055.
For the substance NRAECSFVCTEYVNICK, the amyloid nucleation score was -0.313 ± 0.43.
As to NRCVAGRWPNSFVVLGHTFN, the amyloid nucleation score was -0.211 ± 0.71.
The figure for NRDYTVFKTRVFKSIFRIR is 0.505 ± 0.78.
The figure for NREIPQWIGFVY is 1.12 ± 0.65.
NRGSRTVLWDGNWAGTNTMP registered an amyloid nucleation score of -0.154 ± 0.47.
Substance NRLCDK gave an amyloid nucleation score of 1.25 ± 0.35.
Substance NRLVMLLLTLSNGSCEKVRD returned an amyloid nucleation score of 2.95 ± 0.094.
For NRNISAIGACTGCTNMVFYS, the amyloid nucleation score is 5.64 ± 0.11.
NRPGEINKWSTLIDGVTRFS returned an amyloid nucleation score of 0.335 ± 0.41.
Regarding NRRVCEVR, the amyloid nucleation score is -0.148 ± 1.1.
Next, NRSGGTSAIDYHSWLVYHAG: -0.161 ± 0.28; NSFVTVFLRWKYFVMSDMWP: -0.139 ± 0.25.
On to NSIYHYIVNTFYLNFMGWIE, for which the amyloid nucleation score came to 1.25 ± 0.79.
NSKCSLIQCTGPLVRERRSY: the amyloid nucleation score is 0.058 ± 0.31.
Regarding NSLCYVVWVVVMTVNYYHHW, the amyloid nucleation score worked out at 0.557 ± 0.5.
